This data set has as its target bovine transducin (UniProt P04695).

Chain of bovine transducin (P04695 2-350): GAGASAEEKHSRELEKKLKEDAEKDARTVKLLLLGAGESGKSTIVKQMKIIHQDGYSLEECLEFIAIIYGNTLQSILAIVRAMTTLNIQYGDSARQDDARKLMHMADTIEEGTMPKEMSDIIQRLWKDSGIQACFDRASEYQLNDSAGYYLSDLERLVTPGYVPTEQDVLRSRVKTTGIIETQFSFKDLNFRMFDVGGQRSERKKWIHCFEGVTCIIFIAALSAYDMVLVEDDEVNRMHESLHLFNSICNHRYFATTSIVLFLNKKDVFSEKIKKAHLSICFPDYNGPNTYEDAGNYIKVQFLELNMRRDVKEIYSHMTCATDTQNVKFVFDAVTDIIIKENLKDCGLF

For the substance “recombinant S1 protein of native sequence from pPTXS1/1”, the “ADP-ribosyltransferase activity (autoradiogram of SDS-PAGE, [32P]NAD)” value is “The radioactive band at 39 Kd is the transducin subunit which has been ribosylated”.

The values are drawn from patent US7144576.
